Patent US20230212268A1 (UNM RAINFOREST INNOVATIONS, published 2023)
“And” between values parts separate entries of the source, which are not always exact repeats. Equal entries are not always repeated.

How the values were obtained:
[1] = target: T1, recombinant MARV glycoprotein (MARV (marburgvirus, Ravn), UniProt Q1PDC7 19-648); assay: ELISA dose response, GP coated
T1 sequence: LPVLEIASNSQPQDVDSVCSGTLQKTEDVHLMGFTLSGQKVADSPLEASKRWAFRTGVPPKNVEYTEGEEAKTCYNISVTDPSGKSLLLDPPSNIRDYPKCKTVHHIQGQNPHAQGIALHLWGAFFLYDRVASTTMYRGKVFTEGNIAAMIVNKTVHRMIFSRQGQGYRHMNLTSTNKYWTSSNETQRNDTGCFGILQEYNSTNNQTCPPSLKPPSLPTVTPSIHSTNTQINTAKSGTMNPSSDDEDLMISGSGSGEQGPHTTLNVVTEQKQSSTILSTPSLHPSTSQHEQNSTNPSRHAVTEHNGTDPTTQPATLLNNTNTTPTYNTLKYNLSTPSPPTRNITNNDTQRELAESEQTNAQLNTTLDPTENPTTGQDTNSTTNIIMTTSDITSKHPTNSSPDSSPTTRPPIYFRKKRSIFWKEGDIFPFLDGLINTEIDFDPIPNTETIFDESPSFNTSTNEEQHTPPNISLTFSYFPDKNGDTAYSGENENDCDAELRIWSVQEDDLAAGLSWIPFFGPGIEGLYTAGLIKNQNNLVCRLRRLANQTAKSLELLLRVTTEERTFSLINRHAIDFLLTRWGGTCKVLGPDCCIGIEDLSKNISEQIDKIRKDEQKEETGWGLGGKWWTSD

[2] = target: T2, recombinant EBOV glycoprotein (EBOV (Zaire ebolavirus), UniProt Q05320 33-650); assay: maximal binding from ELISA dose-response fit
T2 sequence: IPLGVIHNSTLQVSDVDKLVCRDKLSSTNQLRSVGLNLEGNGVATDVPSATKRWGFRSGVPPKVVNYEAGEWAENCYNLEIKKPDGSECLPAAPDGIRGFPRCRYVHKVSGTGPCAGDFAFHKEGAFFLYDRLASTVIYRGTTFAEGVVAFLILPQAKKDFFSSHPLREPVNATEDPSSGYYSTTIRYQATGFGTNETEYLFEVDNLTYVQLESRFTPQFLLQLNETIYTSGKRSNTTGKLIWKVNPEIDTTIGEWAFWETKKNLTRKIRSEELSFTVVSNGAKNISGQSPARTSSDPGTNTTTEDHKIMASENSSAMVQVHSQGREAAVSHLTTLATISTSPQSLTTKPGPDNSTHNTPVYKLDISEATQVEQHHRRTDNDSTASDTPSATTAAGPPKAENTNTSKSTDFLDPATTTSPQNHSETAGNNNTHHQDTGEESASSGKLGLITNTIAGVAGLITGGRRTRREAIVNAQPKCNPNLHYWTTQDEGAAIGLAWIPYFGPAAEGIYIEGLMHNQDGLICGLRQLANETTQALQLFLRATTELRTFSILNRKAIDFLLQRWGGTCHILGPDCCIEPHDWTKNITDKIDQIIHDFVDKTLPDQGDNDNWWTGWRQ

[3] = target: T3, recombinant SUDV glycoprotein (SUDV (Sudan ebolavirus), UniProt Q7T9D9 33-650); assay: maximal binding from ELISA dose-response fit
T3 sequence: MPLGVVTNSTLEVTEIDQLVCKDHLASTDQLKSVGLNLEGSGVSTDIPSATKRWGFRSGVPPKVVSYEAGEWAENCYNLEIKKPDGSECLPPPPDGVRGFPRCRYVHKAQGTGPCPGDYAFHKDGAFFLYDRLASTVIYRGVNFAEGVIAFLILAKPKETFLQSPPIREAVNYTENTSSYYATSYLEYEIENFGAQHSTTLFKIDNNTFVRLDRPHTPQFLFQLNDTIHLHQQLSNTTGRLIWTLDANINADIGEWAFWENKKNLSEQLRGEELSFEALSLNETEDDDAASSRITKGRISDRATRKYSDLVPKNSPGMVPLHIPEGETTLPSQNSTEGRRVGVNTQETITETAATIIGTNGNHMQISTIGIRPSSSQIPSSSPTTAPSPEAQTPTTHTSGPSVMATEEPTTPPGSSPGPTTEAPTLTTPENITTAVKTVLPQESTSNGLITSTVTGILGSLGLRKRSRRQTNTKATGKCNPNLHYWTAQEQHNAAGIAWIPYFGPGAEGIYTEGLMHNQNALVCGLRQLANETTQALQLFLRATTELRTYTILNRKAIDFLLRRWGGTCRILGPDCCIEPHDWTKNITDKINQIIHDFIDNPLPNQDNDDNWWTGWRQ

[4] = target: T4, recombinant TAFV glycoprotein (TAFV (Tai Forest virus), UniProt Q66810 33-650); assay: maximal binding from ELISA dose-response fit
T4 sequence: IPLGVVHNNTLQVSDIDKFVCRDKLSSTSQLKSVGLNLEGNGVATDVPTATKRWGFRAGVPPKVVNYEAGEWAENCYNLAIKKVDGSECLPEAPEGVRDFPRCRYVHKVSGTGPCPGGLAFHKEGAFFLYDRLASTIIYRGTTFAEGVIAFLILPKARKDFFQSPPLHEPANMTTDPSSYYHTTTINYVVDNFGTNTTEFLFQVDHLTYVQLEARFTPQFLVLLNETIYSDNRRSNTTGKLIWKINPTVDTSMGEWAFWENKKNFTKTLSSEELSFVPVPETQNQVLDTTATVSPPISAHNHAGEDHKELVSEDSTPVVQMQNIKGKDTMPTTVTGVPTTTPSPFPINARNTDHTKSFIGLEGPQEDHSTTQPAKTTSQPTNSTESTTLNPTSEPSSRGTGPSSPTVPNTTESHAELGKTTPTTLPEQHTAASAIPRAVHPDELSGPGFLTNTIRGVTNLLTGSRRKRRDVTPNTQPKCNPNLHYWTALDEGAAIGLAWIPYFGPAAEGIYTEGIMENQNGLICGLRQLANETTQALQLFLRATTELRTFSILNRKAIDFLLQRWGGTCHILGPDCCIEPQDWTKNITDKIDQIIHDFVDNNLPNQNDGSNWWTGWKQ

[5] = target: T1, recombinant MARV glycoprotein; assay: maximal binding from ELISA dose-response fit

B1: EbovGPscFv4-2 (scFv)
scFv: MAWSHPQFEKTGSGGAELVKSGASVKLSCTASGFNIKDDYMHWVKQRPEQGLEWIGWIDPENGDTEYASKFQGKATITADTSSNTAYLQLSSLTSEDTAVYYCTTYYYGSAWFAYWGQGTLVTVSAGGGGSGGGGSGGGGSGGGGSASLSVSVGETVTITCRASGNIHNYLAWYQQKQGKSPQLLVYNAKTLADGVPSRFSGSGSGTQYSLKINNLQPEDFGSYYCQHFWSTPYTFGGGTKLEIKRADAAPTVSIFPPSSEQLTSGGASVVCFLNNFTHCQELQQDECS
In the case of B1, the EC50 [1] is reported as 4.51 µg/mL and < 9 µg/mL, the Bmax signal [2] is reported as 350000 relative absorbance units and the Bmax signal [3] is reported as 280000 relative absorbance units. For the same binder, the Bmax signal [4] was 280000 relative absorbance units and the Bmax signal [5] was 380000 relative absorbance units.
